Assay results published in a protein production outcome set (Wang et al. 2014).

Test: label from the status in PepcDB records

| Sequence | protein production |
| --- | --- |
| MSLIVSTIASHSSLQILLGAKKEGFKTRLYVSPKRRPFYSSLPIVDDLVVAEEMTSILNDDGIVVPHGSFVAYLGIEAIEKAKARFFGNRRFLKWETTFELQDKALEGAGIPRVEVVEPEDAKPDELYFVRIEGPRGGSGHFIVEGSELEERLSTLEEPYRVERFIPGVYLYVHFFYSPILERLELLGVDERVLIADGNARWPVKPLPYTIVGNRAIALRESLLPQLYDYGLAFVRTMRELEPPGVIGPFALHFAYDGSFKAIGIASRIDGGSNADHWYSELYWGERLSMGRRIARELRLAEEEDRLEEVVTEGHHHHHH | not failed |
| MSLKAVIFDLDGVITDTAEYHFLAWKHIAEQIDIPFDRDMNERLKGISREESLESILIFGGAETKYTNAEKQELMHRKNRDYQMLISKLTPEDLLPGIGRLLCQLKNENIKIGLASSSRNAPKILRRLAIIDDFHAIVDPTTLAKGKPDPDIFLTAAAMLDVSPADCAAIEDAEAGISAIKSAGMFAVGVGQGQPMLGADLVVRQTSDLTLELLHEEWEQYRIRESEGHHHHHH | not failed |
| MSLKIAVLDDYQDAVRKLDCFNLLQDHEVKVFNNTVKGVGQLAARVADVEALVLIRERTRVTRQLLDRLPKLKIISQTGRVSRDAGGHIDLDACTDKGVVVLEGKGSPVAPAELTWALVMAAQRRIPQYVASLKHGAWQQSGLKSTTMPPNFGIGRVLKGQTLGIFGYGKIGQLVAGYGRAFGMNVLVWGRENSKERARADGFAVAESKEALFEQSDVLSVHLRLNDETRSIITVADLTRMKPTALFVNTSRAELVEENGLVTALNRGRPGMAAIDVFETEPILQGHTLLRMENCICTPHIGYVERESYEMYFGIAFQNILDVLQGNVDSVANPTALAPALIRAEGHHHHHH | not failed |
| MSLKKLLLLLIIVALFISAFAFDLTQYLSLDVLKEKQQQLNQLFVDYPFQVFAIYFVVYVASTALSLPGATILTLGAGAIFGLGWGLLLASFAASLGAFLAFLSARFILHDWVQEKFGDRLTAINRGMERDGAFYLLSLRLVPLFPFFVINLVMGLTKIKAWTFYWVSQVGMLLGTAVYVNAGTQLAQISSLGDVISADLIGAFVLLGIFPLIAKAVLAFVKRRKAFKGYKKPKSFDNNLVVIGAGSAGLVSAYIAATVKAKVTLIEKHKMGGDCLNTGCVPSKALLHVAELAHNARNASSAGVHVGEVSVDFKQVMQQVKSVIKDIEPHDSVERYTKLGVDVEQGDARIVSPWEVEVTSNVEGKSETKRITTRSIIIATGAKPLVPDFEGLDKVDYLTSDTLWELDELPKRLLVLGGGPIGCELSQAFQRLGSQVTQVEMAERLMGPEDADTVELLTRRLTAEGIDIRLNHKALRFEQHNGESVLIAEQTVDNESVDNQNADQSKDVEIPFDKVLIALGRQPNITGFGLEELGVQTNKTVSTNELLQTNFPNIYACGDVAGPYQLTHVASHQAWYASVNALFDPFKTFRADYSVIPWVTYTSPQVANVGLTEQQAKKADKPYEVTEYDIGELDRAIADDSAYGRVKVLTKPGKDELLGVNIVGPQAGELLAEYVLAMKYGIGLNKILGTIHSYPTLAEANKYVAGEWKRANAPQKLLTWVEKFHRWRRS | failed |
| MSLKRFDLIIRSSTVVTETTTYRADVAIRNGIVSAITEPGSISSDDGPAIDGTGLHLFPGMVDVHVHFNEPGRTEWEGFASGSKSLAAGGVTTYFDMPLNSNPPTITREELDKKRQLANEKSLVDYRFWGGLVPGNIDHLQDLHDGGVIGFKAFMSECGTDDFQFSHDETLLKGMKKIAALGSILAVHAESNEMVNALTTIAIEEQRLTVKDYSEARPIVSELEAVERILRFAQLTCCPIHICHVSSRKVLKRIKQAKGEGVNVSVETCPHYLLFSLDEFAEIGYLAKCAPPLRERQEVEDLWDGLMAGEIDLISSDHSPSLPQMKTGKTIFEVWGGIAGCQNTLAVMLTEGYHKRKMPLTQIVQLLSTEPAKRFGLYPQKGTIQVGAEASFTLIDLNESYTLNASDLYYRHPISPYVGQRFRGKVKHTICQGKHVYQDHEGHHHHHH | not failed |
| MSLKRILIVDDDTAILDSTKQILEFEGYEVEIAATAGEGLAKIENEFFNLALFDIKLPDMEGTELLEKAHKLRPGMKKIMVTGYASLENSVFSLNAGADAYIMKPVNPRDLLEKIKEKLDEQEKEGHHHHHH | not failed |
| MSLKYIIGMDVGTTATKGVLYDINGKAVASVSKGYPLIQTKVGQAEEDPKLIFDAVQEIIFDLTQKIDGKIAAISWSSQMHSLIGLGSDDELLTNSITWADNCAKSIVQDAKNRGFAQQIYRKTGMPMHPMAPIYKLLWLKNKKTEVFSQAQKWIGIKEYIIFRLTGKLVTDTTMAAGTGILNLKTLTWDQELLDILKIKKEQLPKIAQPTKVIFPIKTEYVKKLGIDSDTKIILGASDGYLSTIGVNAIDSDHCALNVGTSGAIRTIVDQPKIDPSASYFCYPADKTHYLLGGPVNNGGIVFNWARQTLFDADETPQDFLDVAQTAPAGSRNLIFLPYLGGERAPIWDANARGSFVGLTRMHQKPEMARAVIEGIIFNLYDAASNLIKNTKKPVAINATGGFLKSDFVRQLCANIFNVPIVTMKEQQSGTLAAMFLARQALGLNQDLSEIGQFAQADKVYFPNPKEAATYQKLFPLYCEIRNALAASYGKFSNINEGHHHHHH | not failed |
| MSLLHIAVLLPLIFALIIPFLYRFVKRIHLGWFVLPVPIVLFIYFISLISMTMSGNNVMKNLNWMPHIGMNFNLYVDGLGLLFSLLITGIGSLVVLYSIGYLSKSEQLGNFYCYLLLFMGAMLGVVLSDNFIILYLFWELTSFSSFLLISFWREKKASIYGAQKSLIITVLGGLSMLGGIILLSLATDTFSIQAMISKASDIQNSPFFILVMILFMIGAFTKSAQVPFYIWLPDAMEAPTPVSAYLHSATMVKAGLYLIARITPIFAISEGWVWTITLVGLITLFWASLNATKQHDLKGILAFSTVSQLGMIMSMLGIGAVSYHYQGANSQLYVAGFVAAIFHLINHATFKGALFMITGGIDHSTGTRDVKKLGGLLTIMPISFTLTVITTLSMAGVPPFNGFLSKEKFLESMINVTHLNLMSLNTLGILLPIIAIIGSIFTFVYSIKFILHIFFGSYKPEALPKQAHESSILMLISPIILTSLVIVFGLFPSILTQSIIEPASVAVSQTSNITAEFHLFHGITPAFLSTIGIYIIGILLLISFSYWVRLLQAHPYQLTLNHWYDTSGQRIPGYSENITNSYVTGFSRNNLVIILGILIALTFVTVISVPFSIDFKNVSHLRVFEGATVLFLLIASTFIIFAKSRLFSIIMLSAVGYAISVLFIFFKAPDLALTQFVVESISTALFLLCFYHLPNLNRYNEKPTFKLTNAVISIGVGLSVIILGLIGYGNRHFDSITKFYQEHVFDLAHGKNMVNVILVDFRGMDTLFESSVLGIAGLGVYTMIKLRLKQKNQSSEVNDHE | failed |
| MSLLTLAFNPQPRAKTYCSGPILRVSGVWAVKILYIVLDGAADSPTSPRKTLEEASKPNIDSLGSHAVCGMVYTVKPGVAPQSDYATLSLLGYNPDEYYPGRGPLEAFGAGIEMRRGDIALRANFATVDPGTLRIIDRRVGRSLTSREARELASAVDGMELEDGEGTALFRATIGHRGVLVLRHRSKPLSDAISNTDPAYERRGRFSVALEKYEPFIKLSNPLVEDEAAVLAARMLNEFTLKAVEILDSHPVNLAREKRGLLKANAILSRDAGGLPEEKPPSFQERFGLRGASIVEMVVERGISRYIGLDDIRVEIEGRAREEVYREEAARAVEALETHDLVYVHLKGPDEPGHDGSFEGKIRAVEDIDKHFFAPLLDRLSSAGLEPAFVVTSDHATPWDVGAHSGDPVPLMISHQSIQGSIGKFSETVCLRGRLGTIIGGYRIIPKTLSLLAGLEHHHHHH | not failed |
| MSLNGSSIIEFEDMTWSQQVEDSKKPVVVMFYSPACPYCKAMEPYFEEYAKEYGSSAVFGRINIATNPWTAEKYGVQGTPTFKFFCHGRPVWEQVGQIYPSILKNAVRDMLQHGEECIRKSTPVGQDITGYVEGHHHHHH | not failed |
| MSLNILVIGTGAIGSFYGALLAKTGHCVSVVARSDYETVKAKGIRIRSATLGDYTFRPAAVVRSAAELETKPDCTLLCIKVVEGADRVGLLRDAVAPDTGIVLISNGIDIEPEVAAAFPDNEVISGLAFIGVTRTAPGEIWHQAYGRLMLGNYPGGVSERVKTLAAAFEEAGIDGIATENITTARWQKCVWNAAFNPLSVLSGGLDTLDILSTQEGFVRAIMQEIRAVAAANGHPLPEDIVEKNVASTYKMPPYKTSMLVDFEAGQPMETEVILGNAVRAGRRTRVAIPHLESVYALMKLLELRTSKSLWGNEGHHHHHH | not failed |
| MSLNRHFTVSVFIVCKDKVLLHLHKKAKKMLPLGGHIEVNELPEEACIREAKEEAGLNVTLYNPIDINLKKSCDLSGEKLLINPIHTILGDVSPNHSHIDFVYYATTTSFETSPEIGESKILKWYSKEDLKNAHNIQENILVMATEALDLLEGHHHHHH | not failed |
| MSLNVIDLFSGVGGLSLGAARAGFDVKMAVEIDQHAINTHAINFPRSLHVQEDVSLLNAEIIKGFFKNDMPIDGIIGGPPCQGFSSIGKGNPDDSRNQLYMHFYRLVSELQPLFFLAENVPGIMQEKYSGIRNKAFNLVSGDYDILDPIKVKASDYGAPTIRTRYFFIGVKKSLKLDISDEVFMPKMIDPVTVKDALYGLPDIIDANWQSDSESWRTIKKDRKGGFYEKLWGQIPRNVGDTESIAKLKNNIISGCTGTLHSKIVQERYASLSFGETDKISRSTRLDPNGFCPTLRAGTARDKGSFQAVRPIHPYHPRVITPREAARLQGFPDWFRFHVTKWHSFRQIGNSVSPIVAEYILKGLYNLLNEGHHHHHH | not failed |
| MSLNVQTVAVIGSGTMGAGIAEVAASHGHQVLLYDISAEALTRAIDGIHARLNSRVTRGKLTAETCERTLKRLIPVTDIHALAAADLVIEAASERLEVKKALFAQLAEVCPPQTLLTTNTSSISITAIAAEIKNPERVAGLHFFNPAPVMKLVEVVSGLATAAEVVEQLCELTLSWGKQPVRCHSTPGFIVNRVARPYYSEAWRALEEQVAAPEVIDAALRDGAGFPMGPLELTDLIGQDVNFAVTCSVFNAFWQERRFLPSLVQQELVIGGRLGKKSGLGVYDWRAEREAVVGLEAVSDSFSPMKVEKKSDGVTEIDDVLLIETQGETAQALAIRLARPVVVIDKMAGKVVTIAAAAVNPDSATRKAIYYLQQQGKTVLQIADYPGMLIWRTVAMIINEALDALQKGVASEQDIDTAMRLGVNYPYGPLAWGAQLGWQRILRLLENLQHHYGEERYRPCSLLRQRALLESGYESEGHHHHHH | not failed |
| MSLPGLSAAADQTIKIGAQSMSESEIIASMLGQLIEHHTDLKTTTIKNLGSNAVQQQALMNGEIDIAATRYTGDALTGTLRMEPEKDPDKALALTQREFKKRYDLKWYDSYGFDNTYAFTVSKELADQYHLETVSDVKKWAPQLKLGVDNYWMKLKGNGYQDFTKTYGMTFGGTYPMQIGLVYDAVKSGKMDIVLAYSTDGRIKSYGLKMLKDDKQFFPPYDCSPVVPEKVLKEHPELEGIIKKMLGKIDTATMQELNYEVDGNLKEPSVVAKEYLEKHRYFESLEHHHHHH | not failed |
| MSLPTEMHHNLGAEKRSAVATTIDSFKERSQKVRALSDPNVRFVPFFGSSEWLRFDGAHPAVLAEKYNRSYRPYLLGQGGAASLNQYFGMQQMLPQLENKQVVYVISPQWFSKNGYDPAAFQQYFNGDQLTSFLKHQSGDQASQYAATRLLQQFPNVAMKDLVQKLASKEELSTADNEMIELLARFNERQASFFGQFSVRGYVNYDKHVAKYLKILPDQFSYQAIEDVVKADAEKNTSNNEMGMENYFYNEQIKKDLKKLKDSQKSFTYLKSPEYNDLQLVLTQFSKSKVNPIFIIPPVNKKWMDYAGLREDMYQQTVQKIRYQLESQGFTNIADFSKDGGEPFFMKDTIHLGWLGWLAFDKAVDPFLSNPTPAPTYHLNERFFSKDWATYDGDVKEFQEGHHHHHH | not failed |
